Results taken from paper PMC11406519.

Assays:
[1] = target: GNNV-P R276A (Dragon grouper nervous necrosis virus); assay: AUC; sedimentation velocity, pH 5.0, no divalent ions; 0.25–0.4 mg/mL, 60,000 rpm, 20 °C, absorbance at 280 nm, c(s) model (SEDFIT); monomer to trimer
[2] = target: GNNV-P: Dragon grouper NNV capsid protein P-domain (aa 221–338) plus the flexible linker (aa 214–220), wild type (Dragon grouper nervous necrosis virus); assay: as above

Row | Substance | stoichiometry N [1] | stoichiometry N [2]
1 | GNNV-P R276A (domain or fragment) | 3 | –
2 | GNNV-P: Dragon grouper NNV capsid protein P-domain (aa 221–338) plus the flexible linker (aa 214–220), wild type (domain or fragment) | – | 3
